Measurements reported in patent US20150259425A1 (AbbVie / Abbott, published 2015).
Each block holds one binder with its values, some of them ahead of it.

Columns and labels:
recombinant human CD16a [1] = target: T1, recombinant human CD16a (human, UniProt P08637 17-208, limits assumed); assay: AlphaScreen, recombinant human CD16a; high glycine batch against control batch
T1 construct: Recombinant human CD16a solution used in the AlphaScreen assay; also called CD16a receptor; human CD16a receptor
Description: (§1) A CD16a binding assay was performed using AlphaScreen (PerkinElmer) method to assess the binding potency of the antibody Fc region of four different antibodies to human CD16a receptor. The antibody solution was first mixed with a recombinant human CD16a solution and assay buffer, and then Alphascreen donor beads and antibody acceptor beads were added. The mixture was incubated in a light protected location for 4 hours at room temperature and the fluorescent signal was detected using a plate reader with laser excitation at 680 nm and light emission 520-620 nm. The binding potency relative to the antibody reference cultured in a basal medium without excess glycine was reported.

recombinant human CD16a [2] = target: T1, recombinant human CD16a; assay: AlphaScreen, recombinant human CD16a in solution; batch: 1 kL control medium
Description: as §1

recombinant human CD16a [3] = target: T1, recombinant human CD16a; assay: AlphaScreen, recombinant human CD16a in solution; batch: 1 kL with extra glycine
Description: as §1

recombinant human CD16a [4] = target: T1, recombinant human CD16a; assay: AlphaScreen, recombinant human CD16a in solution; batch: 100 L with extra glycine
Description: as §1

recombinant human CD16a [5] = target: T1, recombinant human CD16a; assay: AlphaScreen, recombinant human CD16a in solution; batch: 1 kL control (GMP)
Description: as §1

recombinant human CD16a [6] = target: T1, recombinant human CD16a; assay: AlphaScreen, recombinant human CD16a in solution; batch: 100 L control medium
Description: as §1

recombinant human CD16a [7] = target: T1, recombinant human CD16a; assay: AlphaScreen, recombinant human CD16a in solution; batch: 50 L with extra glycine
Description: as §1

recombinant human CD16a [8] = target: T1, recombinant human CD16a; assay: AlphaScreen, recombinant human CD16a in solution; dose response study, batch: 2 L control (2 mM glycine)
Description: as §1

recombinant human CD16a [9] = target: T1, recombinant human CD16a; assay: AlphaScreen, recombinant human CD16a in solution; dose response study, batch: 2 L with extra 5 mM glycine
Description: as §1

recombinant human CD16a [10] = target: T1, recombinant human CD16a; assay: AlphaScreen, recombinant human CD16a in solution; dose response study, batch: 2 L with extra 15 mM glycine
Description: as §1

recombinant human CD16a [11] = target: T1, recombinant human CD16a; assay: AlphaScreen, recombinant human CD16a in solution; dose response study, batch: 2 L with extra 30 mM glycine
Description: as §1

recombinant human CD16a [12] = target: T1, recombinant human CD16a; assay: AlphaScreen, recombinant human CD16a in solution; batch: 2 L control medium
Description: as §1

recombinant human CD16a [13] = target: T1, recombinant human CD16a; assay: AlphaScreen, recombinant human CD16a in solution; batch: 250 L control medium
Description: as §1

recombinant human CD16a [14] = target: T1, recombinant human CD16a; assay: AlphaScreen, recombinant human CD16a in solution; batch: 2 L with extra glycine
Description: as §1

increase in binding affinity relative to the control antibody (basal medium, 2 mM glycine) (recombinant human CD16a [1]): 40 % increase
CD16a Binding Relative to Reference (recombinant human CD16a [2]): 100%
CD16a Binding Relative to Reference (recombinant human CD16a [3]): 146%
CD16a Binding Relative to Reference (recombinant human CD16a [4]): 128%
B1: elotuzumab (antibody, human IgG1, kappa)
heavy: not shown
light: DIQMTQSPSSLSASVGDRVTITCKASQDVGIAVAWYQQKPGKVPKLLIYWASTRHTGVPDRFSGSGSGTDFTLTISSLQPEDVATYYCQQYSSYPYTFGQGTKVEIKRTVAAPSVFIFPPSDEQLKSGTASVVCLLNNFYPREAKVQWKVDNALQSGNSQESVTEQDSKDSTYSLSSTLTLSKADYEKHKVYACEVTHQGLSSPVTKSFNRGEC
modifications: N-linked glycans; the share of non-fucosylated glycoforms differs between batches (control vs high glycine medium)
notes: IgG1 made in NS0 cells; also called HuLuc63; HuLuc 63

increase in binding affinity relative to the control antibody (basal medium, 2 mM glycine) (recombinant human CD16a [1]): 40 % increase
CD16a Binding Relative to Reference (recombinant human CD16a [5]): 65%
CD16a Binding Relative to Reference (recombinant human CD16a [2]): 96%
CD16a Binding Relative to Reference (recombinant human CD16a [6]): 110%
CD16a Binding Relative to Reference (recombinant human CD16a [7]): 136%
CD16a Binding Relative to Reference (recombinant human CD16a [8]): 130 relative to Reference (no unit printed; percent as in Table 15)
CD16a Binding Relative to Reference (recombinant human CD16a [9]): 146 relative to Reference (no unit printed; percent as in Table 15)
CD16a Binding Relative to Reference (recombinant human CD16a [10]): 151 relative to Reference (no unit printed; percent as in Table 15)
CD16a Binding Relative to Reference (recombinant human CD16a [11]): 144 relative to Reference (no unit printed; percent as in Table 15)
B2: enavatuzumab (antibody, human IgG1, kappa)
heavy: not shown
light: DIQMTQSPSSLSASVGDRVTITCRASQSVSTSSYSYMHWYQQKPGKAPKLLIKYASNLESGVPSRFSGSGSGTDFTLTISSLQPEDFATYYCQHSWEIPYTFGGGTKVEIKRTVAAPSVFIFPPSDEQLKSGTASVVCLLNNFYPREAKVQWKVDNALQSGNSQESVTEQDSKDSTYSLSSTLTLSKADYEKHKVYACEVTHQGLSSPVTKSFNRGEC
modifications: N-linked glycans; the share of non-fucosylated glycoforms differs between batches
notes: Humanized IgG1 to TweakR, made in NS0 cells; Batches differ only in glycoforms; also called PDL192

Second part, the binder before the results:

B3: PDL241 (antibody, human IgG1, kappa)
heavy: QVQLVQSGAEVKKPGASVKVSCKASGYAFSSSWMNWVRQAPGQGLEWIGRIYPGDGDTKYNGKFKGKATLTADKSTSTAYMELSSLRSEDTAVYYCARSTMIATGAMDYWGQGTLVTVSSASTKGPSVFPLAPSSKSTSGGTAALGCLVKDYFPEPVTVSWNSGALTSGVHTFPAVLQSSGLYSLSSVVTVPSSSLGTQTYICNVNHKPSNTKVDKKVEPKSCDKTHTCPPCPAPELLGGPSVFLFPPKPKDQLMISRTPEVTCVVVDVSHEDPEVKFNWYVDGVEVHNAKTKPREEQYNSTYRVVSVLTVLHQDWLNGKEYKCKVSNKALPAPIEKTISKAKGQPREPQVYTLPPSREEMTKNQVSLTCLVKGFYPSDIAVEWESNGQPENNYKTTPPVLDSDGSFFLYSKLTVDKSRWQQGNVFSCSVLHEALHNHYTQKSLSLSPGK
light: DIQMTQSPSSLSASVGDRVTITCKASQDVSTAVAWYQQKPGKAPKLLIYSASYRYTGVPDRFTGSGSGTDFTLTISSLQPEDFATYYCQQHYSTPPYTFGGGTKVEIKRTVAAPSVFIFPPSDEQLKSGTASVVCLLNNFYPREAKVQWKVDNALQSGNSQESVTEQDSKDSTYSLSSTLTLSKADYEKHKVYACEVTHQGLSSPVTKSFNRGEC
modifications: N-linked glycans; the share of non-fucosylated glycoforms differs between batches
notes: Humanized IgG1 to CS1, made in NS0 cells; Batches differ only in glycoforms
increase in binding affinity relative to the control antibody (basal medium, 2 mM glycine) (recombinant human CD16a [1]): 40 % increase
CD16a Binding Relative to Reference (recombinant human CD16a [12]): 147%
CD16a Binding Relative to Reference (recombinant human CD16a [13]): 100%
CD16a Binding Relative to Reference (recombinant human CD16a [14]): 277%
CD16a Binding Relative to Reference (recombinant human CD16a [4]): 137%

B4: daclizumab (antibody, human IgG1, kappa)
heavy: not shown
light: DIQMTQSPSTLSASVGDRVTITCSASSSISYMHWYQQKPGKAPKLLIYTTSNLASGVPARFSGSGSGTEFTLTISSLQPDDFATYYCHQRSTYPLTFGSGTKVEVKRTVAAPSVFIFPPSDEQLKSGTASVVCLLNNFYPREAKVQWKVDNALQSGNSQESVTEQDSKDSTYSLSSTLTLSKADYEKHKVYACEVTHQGLSSPVTKSFNR
modifications: N-linked glycans; the share of non-fucosylated glycoforms differs between batches
notes: Humanized IgG1 to CD25, made in NS0 cells; the entries may be incomplete; also called DAC HYP
increase in binding affinity relative to the control antibody (basal medium, 2 mM glycine) (recombinant human CD16a [1]): 40 % increase
CD16a Binding Relative to Reference (recombinant human CD16a [12]): 69%
CD16a Binding Relative to Reference (recombinant human CD16a [14]): 137%
